# Test results published in patent EP4541891A1, “NOVEL LRP1-BINDING PEPTIDE” (Ichimaru Pharcos Co., Ltd., priority 2022, dated 2025).
# Bridge positions count the residues as written; N and C are the ends. Square brackets hold non-standard residues; d marks the D form. Ends that are not written are not given here. Peptide text beside a SMILES is read from it. * marks the point of attachment. 5FAM = O=C1OC2(c3ccc(O)cc3Oc3cc(O)ccc32)c2ccc(C(=O)*)cc21; Biotin = O=C1N[C@H]2[C@H](CS[C@H]2CCCCC(=O)*)N1; Hyp = O=C(O)[C@@H]1C[C@@H](O)CN1; Nle = CCCC[C@H](N)C(=O)O; Aib = CC(C)(N)C(=O)O
# Tested on: LRP1 cluster 4-Fc chimeric proteins
# Experiment: Competitive binding assay by ELISA against Sequence 46
# Conditions: peptide 2,000 nM versus Sequence 46 (500 nM); time point not stated
# Experimental: For comparison between the peptide of Sequence 1 with amino acid substitutions and the peptide of Sequence 2 in terms of the LRP1 binding activity and the resistance to protease degradation, a competitive binding assay by ELISA shown in FIG. 2 was constructed. Immediately (zero hour) or 24 hours after the mixing of the peptide of Sequence 2 or the amino acid-substituted peptide with mouse plasma at 37°C, the mixture was diluted to sufficiently lower the plasma concentration to any desired final concentration, and mixed with Sequence 46 (500 nM). This mixture was subjected to the competitive binding assay described above. The binding of Sequence 46 to the LRP1 cluster 4-Fc chimera proteins competes with the binding of Sequence 2 or the amino acid-substituted peptide to the LRP1 cluster 4-Fc chimera proteins, and thus is inhibited depending on the concentration of Sequence 2 or the amino acid-substituted peptide. That is, the binding activity of Sequence 2 or the amino acid-substituted peptide to the LRP1 cluster 4-Fc chimera proteins is detected as competitive inhibitory activity against the binding of Sequence 46. Regarding the binding value of Sequence 46 to the wells in which the LRP1 cluster 4-Fc chimeric proteins were not captured as 100% inhibitory activity and the binding value of Sequence 46 to the wells in which Sequence 2 or the amino acid-substituted peptide was not added as 0% inhibitory activity, the inhibitory activity values of Sequence 2 and the amino acid-substituted peptide were calculated in %.
# Sequence 2 incubated with plasma for zero hour inhibited the binding of Sequence 46 in a concentration-dependent manner. […] However, the binding of Sequence 46 (500 nM) in wells loaded with 2,000 nM equivalent Sequence 2 averaged 50.6%.
# Immediately or 24 hours after Sequences 1 to 44 were mixed with mouse plasma at 37°C, the mixtures were diluted to sufficiently lower the plasma concentration to a final concentration of 2,000 nM, and mixed with Sequence 46 (500 nM). The obtained mixtures were subjected to the above-described competitive binding assay. […] Other sequences tended to have diminished inhibitory activities.
row,inhibitory activity [%],Molecule
1,91.9,"CCCC[C@@H]1NC(=O)[C@H](CCC(=O)O)NC(=O)[C@H](C)NC(=O)[C@H](CC(C)C)NC(=O)[C@H](CCCC)NC(=O)[C@H](Cc2ccc(O)cc2)NC(=O)[C@H](CCCCN)NC(=O)[C@H](Cc2ccc(O)cc2)NC(=O)[C@H]([C@@H](C)O)NC(=O)[C@H](NC(=O)[C@@H]2CCCN2C(=O)[C@@H](NC(=O)CNC(=O)[C@H](CCCCNC(=O)c2ccc3c(c2)C(=O)OC32c3ccc(O)cc3Oc3cc(O)ccc32)NC(C)=O)[C@@H](C)O)CSSC[C@@H](C(=O)O)NC1=O [Sequence 6, Ac-Lys(5FAM)-Gly-Thr-Pro-c(^DCys-Thr-Tyr-Lys-Tyr-Nle-Leu-Ala-Glu-Nle-Cys)-OH] (Ac-K(5FAM)GTP[dC]TYKY[Nle]LAE[Nle]C-OH; disulfide 5-15)"
2,77.4,"CCCC[C@@H]1NC(=O)[C@H](CCC(=O)O)NC(=O)[C@H](C)NC(=O)[C@H](CC(C)C)NC(=O)[C@H](CCCC)NC(=O)[C@H](Cc2ccc(O)cc2)NC(=O)[C@H](CCCNC(=N)N)NC(=O)[C@H](Cc2ccc(O)cc2)NC(=O)[C@H]([C@@H](C)O)NC(=O)[C@@H](NC(=O)[C@@H]2CCCN2C(=O)[C@@H](NC(=O)CNC(=O)[C@H](CCCCNC(=O)c2ccc3c(c2)C(=O)OC32c3ccc(O)cc3Oc3cc(O)ccc32)NC(C)=O)[C@@H](C)O)CSSC[C@@H](C(=O)O)NC1=O [Sequence 24, Ac-Lys(5FAM)-Gly-Thr-Pro-c(Cys-Thr-Tyr-Arg-Tyr-Nle-Leu-Ala-Glu-Nle-Cys)-OH] (Ac-K(5FAM)GTPCTYRY[Nle]LAE[Nle]C-OH; disulfide 5-15)"
3,82.0,"CCCC[C@@H]1NC(=O)[C@H](CCC(=O)O)NC(=O)C(C)(C)NC(=O)[C@H](CC(C)C)NC(=O)[C@H](CCCC)NC(=O)[C@H](Cc2ccc(O)cc2)NC(=O)[C@H](CCCCN)NC(=O)[C@H](Cc2ccc(O)cc2)NC(=O)[C@H]([C@@H](C)O)NC(=O)[C@@H](NC(=O)[C@@H]2CCCN2C(=O)[C@@H](NC(=O)CNC(=O)[C@H](CCCCNC(=O)c2ccc3c(c2)C(=O)OC32c3ccc(O)cc3Oc3cc(O)ccc32)NC(C)=O)[C@@H](C)O)CSSC[C@@H](C(=O)O)NC1=O [Sequence 34, Ac-Lys(5FAM)-Gly-Thr-Pro-c(Cys-Thr-Tyr-Lys-Tyr-Nle-Leu-Aib-Glu-Nle-Cys)-OH] (Ac-K(5FAM)GTPCTYKY[Nle]L[Aib]E[Nle]C-OH; disulfide 5-15)"
4,83.5,"CCCC[C@@H]1NC(=O)[C@H](Cc2ccc(O)cc2)NC(=O)[C@H](CCCCN)NC(=O)[C@H](Cc2ccc(O)cc2)NC(=O)[C@H]([C@@H](C)O)NC(=O)[C@@H](NC(=O)[C@@H]2CCCN2C(=O)[C@@H](NC(=O)CNC(=O)[C@H](CCCCNC(=O)c2ccc3c(c2)C(=O)OC32c3ccc(O)cc3Oc3cc(O)ccc32)NC(C)=O)[C@@H](C)O)CSSC[C@@H](C(=O)O)NC(=O)[C@@H]2CCCN2C(=O)[C@H](CCCC)NC(=O)[C@H](CCC(=O)O)NC(=O)[C@H](C)NC(=O)[C@H](CC(C)C)NC1=O [Sequence 43, Ac-Lys(5FAM)-Gly-Thr-Pro-c(Cys-Thr-Tyr-Lys-Tyr-Nle-Leu-Ala-Glu-Nle-Pro-Cys)-OH] (Ac-K(5FAM)GTPCTYKY[Nle]LAE[Nle]PC-OH; disulfide 5-16)"
5,87.6,"Ac-Lys(5FAM)-Gly-Thr-Pro-c(^DCys-Thr-Tyr-Lys-Tyr-Nle-Leu-Ala-Glu-Nle-Cys)-OH (KGTPCTYKYXLAEXC; N-acetyl, Lys(5FAM), cyclic, D-residue, Nle residues; CROSSLNK 5..15: note = methylene thioactal (-S-CH2-S-); SITE 5: note = D-Cys; SITE 10: note = Nle; SITE 14: note = Nle; MOD_RES 1: note = N-acetyllysine labeled with 5-FAM) [Sequence 7]"

# Continued, molecule first:
row,Molecule,inhibitory activity [%]
1,"Ac-Lys(5FAM)-Gly-Thr-Pro-Cys-Thr-Tyr-Lys-Tyr-Nle-Leu-Ala-Glu-Nle-Cys)-OH (Ac-K(5FAM)GTPCTYKY[Nle]LAE[Nle]C-OH; not fully specified (bridges); printed as Ac-Lys(5FAM)-Gly-Thr-Pro-Cys-Thr-Tyr-Lys-Tyr-Nle-Leu-Ala-Glu-Nle-Cys)-OH; also: cyclic, bridge type not given here) [Sequence 1]",70.7
2,Ac-Lys(5FAM)-Gly-Thr-Pro-Cys-Thr-Tyr-Lys-Tyr-Nle-Leu-Ala-Glu-Nle-^DCys-OH (Ac-K(5FAM)GTPCTYKY[Nle]LAE[Nle][dC]-OH; cysteine pairing not given here) [Sequence 9],85.8

# Molecular target: LRP1 cluster 4-Fc chimeric proteins (UniProt Q07954)
# Chain of UniProt Q07954 (Q07954 3293-3783, stated change not applied): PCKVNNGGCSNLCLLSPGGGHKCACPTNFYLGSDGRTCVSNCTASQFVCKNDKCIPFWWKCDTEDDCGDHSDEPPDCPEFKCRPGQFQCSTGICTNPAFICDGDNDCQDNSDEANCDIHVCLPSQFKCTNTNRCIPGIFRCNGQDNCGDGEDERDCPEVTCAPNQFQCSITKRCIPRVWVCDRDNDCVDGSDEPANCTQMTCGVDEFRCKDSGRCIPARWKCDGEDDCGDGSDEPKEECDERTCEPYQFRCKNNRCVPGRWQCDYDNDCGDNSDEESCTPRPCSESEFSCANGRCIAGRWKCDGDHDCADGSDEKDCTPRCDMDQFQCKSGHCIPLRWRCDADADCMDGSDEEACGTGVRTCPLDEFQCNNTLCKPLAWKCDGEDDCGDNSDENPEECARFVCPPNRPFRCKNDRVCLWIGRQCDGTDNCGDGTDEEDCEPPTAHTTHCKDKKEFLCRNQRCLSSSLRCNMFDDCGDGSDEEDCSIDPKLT
# Experiment: competitive ELISA, LRP1 cluster 4-Fc captured; peptide 2,000 nM against biotin-Sequence 46 500 nM
# Conditions: not given
row,inhibitory activity (%),Molecule
1,83.5,Ac-K(5FAM)GTPCTYKY[Nle]LAE[Nle]PC (disulfide 5-16) [SEQUENCE 43]
2,82,Ac-K(5FAM)GTPCTYKY[Nle]L[Aib]E[Nle]C (disulfide 5-15) [SEQUENCE 34]
3,77.4,Ac-K(5FAM)GTPCTYRY[Nle]LAE[Nle]C (disulfide 5-15) [SEQUENCE 24]

# Second part, the molecule before the results:
row,Molecule,inhibitory activity (%)
1,Ac-K(5FAM)GTP[dC]TYKY[Nle]LAE[Nle]C (bridge 5-15 via S‑C‑S (methylene)) [SEQUENCE 7],87.6
2,Ac-K(5FAM)GTP[dC]TYKY[Nle]LAE[Nle]C (disulfide 5-15) [SEQUENCE 6],91.9
3,Ac-K(5FAM)GTPCTYKY[Nle]LAE[Nle]C (cysteine pairing not given here) [SEQUENCE 1],70.7
4,Ac-K(5FAM)GTPCTYKY[Nle]LAE[Nle][dC] (cysteine pairing not given here) [SEQUENCE 9],85.8
5,Ac-K(5FAM)GTPC[Hyp]YKY[Nle]LAE[Nle]C (disulfide 5-15) [SEQUENCE 19],79.1

# Molecular target: LRP1 cluster 4-Fc chimeric proteins (UniProt Q07954)
# Experiment: ELISA, LRP1 cluster 4-Fc captured, biotin peptide detected with SA-HRP
# Conditions: not given
row,Molecule,EC50 [nM]
1,Ac-K(Biotin)GTPCTYKY[Nle]LAE[Nle]C (cysteine pairing not given here) [SEQUENCE 45],10.5
2,Ac-K(Biotin)GTPCTYKY[Nle]LAE[Nle]C (disulfide 5-15) [SEQUENCE 46],11
